We go through 14 sequences from the DeepSol protein solubility set.

This data set is described as follows: soluble on expression in E. coli; label from the status in PepcDB or PDB records.
“MAANSLPQDISDVELVHLARAAMKRAHCPYSKFPVGAALLTESGEIVQGCNVENASYGGTICAERSAIVSAVSQGYTKFRAIAVVTELSEPASPCGLCRQFLVEFGDYKVVVGTASNNKILITSTRALLPFAFTPESLDTFEQEKASEAKGLKQDDATEHNVTVVS”: the “soluble on expression in E. coli” value was “not soluble”.

For the sequence “VTLLVKSPNQRHRDLELSGDRGWSVGHLKAHLSRVYPERPRPEDQRLIYSGKLLLDHQCLRDLLPKQEKRHVLHLVCNVK”, the “soluble on expression in E. coli” value was “soluble”.

Turning to “MGSDKIHHHHHHMEELIQKALSSSNKVSSNSLIEKIIPVGGGCIHKAWSIHFQNGKRVFAKSNYIDNINMFKFERECLSVLKRFANESYICVPETLDLISYQNISILFLEWIDLKQCQQNVLGKGLALLHKSSSEWSKKNFGWEEEGFIGSSTQARGWKSNWGEFFVNYRLRPQLLQAKAWGVRVEDYEDVLIYLSSYLNDHQPKTSLVHGDLWSGNCGSTKNGLGSLYDPACYWADREVDISMTKLFGGFNREFYKGYEEIWPLNKFSKDRNDIYNLYHLLNHANIFGGSYKENSLKILKDLRSRV”, the “soluble on expression in E. coli” value is listed as “not soluble”.

Turning to “MAEKNHQQQERLPGNPFFPSRSNAGSSFDMPETPHLIDSLTSQIDEFTIQSIIDTQRQSLKRFEKTNEMLMNCAQLGDRRIEKAKRDSVGHKETILQMKTDLEFIFKKIRMFKTVLSSKYPEVYAEVSAELTPKRSEEDE”, the “soluble on expression in E. coli” value is recorded as “not soluble”.

In the case of “MNSGPKVSVIMGIYNCERTLAESIESILSQSYKNWELILCDDASTDGTLRIAKQYAAHYSDRIKLIQNKTNKRLAASLNHCLSHATGDYIERQDGDDLSFPRRLEKQVAFLEKHRHYQVVGTGMLVFDEFGVRGARILPSVPEPGIMAKGTPFCHGTIMMRASAYRTLKGYRSVRRTRRMEDIDLWLRFFEEGFRGYNLQEALYKVREDSDAFKRRSFTYSIDNAILVYQACRRLKLPLSDYIYIAKPLIRAFMPAAVMNRYHKKRVMNQKEGLVKHELEHHHHHH”, the “soluble on expression in E. coli” value was “not soluble”.

Take “MGSDKIHHHHHHMECLLKTTSSVRFGSIHHPCECPANEACPFSIMSLFKRKAASSLETLALAKVGETVRKRLSADPGVYRIPLDDLEIFGVADFFSAEECAKLMAIVDSVARPSPTYSGTDASGRTSYTGDVDPFDPFVLMLQRRIDDLMGIDPSFGETIQGQRYAPGQEFRGHYDHFLPSQPFWDAEQKRGGQRSWTAMAYLNAVEEGGQTEFARVNLSIPPQPGALLIWNNMKPDGTPNANAMHAGMPVVRGTKYVLTKWYRSRPWH”: the “soluble on expression in E. coli” value is given as “not soluble”.

“MARLKTAQPNSSLRKIAVVVATAVSGMSVYAQAAVQPKEETITVTAAPAAQESAWGPAPTIAAKRSATTTKTDTPIEKTPQSVSVVTNEEMQMHQFQSVKEALGYTPGVTVSSRGASNTYDFVIIRGFSSVGLSQNNYLDGLKLQGNFYNDAVIDPYMLERVELMRGPTSVLYGKSNPGGIISMVSKRPTTEPLKEIQFKMGTDNLFQTGFDFSDSLDDNGEFSYRLTGLARSTNEQQKSSESQRYAIAPSFTWRPDEKTNFTFLSYFQNEPETGYYGWLPKEGTVEPLPNGKRLPTDFNEGASNNTYSRNEKMVGYSFEHGFNDTFTVRQNLRFVEMKTAQKSVYGTGIAADGHTLNRGTIVDNERLQNFSVDTQLESKFATGDIDHTLLTGVDFMRMRNDINATFGSAPSIDLYNNYHPEYFAFGGAEPYQMNESKQTGLYVQDQAEWNKWVFTLGGRYDWSKQATTVRQNSTTPTEGYIERNDHQFTWRGGVNYVFDNGISPYFSYSQSFEPSAFDLWSTPRVSYKPSKGEQYEAGVKYVPKDMPVVVTGAVYQLTKTNNLTADPTNPLAQVPAGEIRARGVELEAKAALTANINMTASYTYTDAEYTKDTNLKGNTPEQVPEHMASLWGDYTFNEGPLSGLTLGTGGRFIGSSYGDPANSFKVGSAAVMDAVVKYDLARFGMAGSSIAVNVNNLLDREYVASCFQTYGCFWGAERQVVATATFRF”: the “soluble on expression in E. coli” value was “not soluble”.

With “MSLFQITKSKLRFPLSTFTKRYSSFQAAKSVIDKAAIDGELRVFIVSGEVSGDNIGSRLMSSLKKLSPLPIRFNGVGGSLMCKKGLNSLFPMEDLAVMGVWELLPHLYKFRVKLKETIDAAVKFKPHVVVTVDSKGFSFRLLKELRGKQHKTCFIKLVRENHEGHHHHHH”, the “soluble on expression in E. coli” value was “not soluble”.

Consider “MPEKKPVTAENSVGIDLGIEKFAILSDGIAVENPRFIKRVEKRIKKLQKQISRKKKGSKNYEKQKIRIQKKYRKLRNLRDDFHDKVSTAIAKRYDTIFIEDLNVRGMQRNHHLARSITDVSFYSFKEKLKWKADRYGKNLIEIGRFDPSSKLCSRCGNIKKDLKLSDRVYSCDACGLTIDRDYNASLDIRKIGLVKVGLVPPEFTPVEIATSGLDGIYPYRQMSVGESGRSEASAEELEHHHHHH”, for which the “soluble on expression in E. coli” value is listed as “not soluble”.

In the case of “MSSPSSASESDSSQMSLLATPPVAIRRPLPYPRDIISSPLEVATPVTVSPTDFMPIRELVTTPYHISTPVLITPVDARSISREIVRVNRIRRVRTRQASRSVFNSVRRRLSMITANRTEIQMNTPQTLPRSKRIDNTSTAMEPVSSNAFQKIISEILNNSPACTETINSTIIPSNSSNCAKLREFNRLESIGIAQMAVENENEILEALDFIEWNIRLMSCESDYIDKVLEDLENEKLNKQNKWERIELILSLIQD”, the “soluble on expression in E. coli” value is “not soluble”.

As for “MGSDKIHHHHHHMTIRSKFALFAGSSSYILLHKILHRGGTSLPGKIAYRIDPTFLEEFRDQIETVIVSGTNGKTLTTALCARVLKKTNRVVVTNNSGSNMIQGIVAALLSQKDKIKKSIRHGTIPIAVLEVDEANVKEVAKILQPTHFVLTNIFRDQMDRYGEIYTTYEKITDGIKTAPKAKVVANGDSPIFARKPYKNQAVYFGFTHKKSVGDLRAPNNTDGVLAPTNDQVLHYHYLTYANLGDYFTKDGSFKRPQLKYSVNKINSLTPSKSEFEIAGNKFTLPLGGLYNIYNALAAYSLGREFQISAEDIFNALNEDSRIFGRQEQLTIGSHLVTIVLIKNPVGANSVIDMMMTDPEEFSLVTLLNANYADGIDTSWIFDAEFEKLHQTALKKIIVGGQRYKDFSVRLKMAGFKNQIVEQDFAKLIDRIKELPTKNVYVAATYTSMLMFREELAKAGLAKESF”, the “soluble on expression in E. coli” value is listed as “not soluble”.

As to “MREDVPRAVTTICSALQEQIEHGLLPHGSKLPAERKLSEVFDTTRITLREALLQLEAQGLIYREERRGWFISPPRLAYDLIRRSHFHAMVCAQGRVAHTQLLSARLQPASAMICEMLELPALSSVIQICRARRIDQRLVLYVEHYLRPELFPGILDHDLNESLIELYARCYDVHYGPVRFDVVPTALHADAAAALKVSLGSPGLRIARVNYDRKDRLIDCDLEYWRHDAIHVRAMVRDN”, the “soluble on expression in E. coli” value was “not soluble”.

For the sequence “PDLAQKAANLTQEELAGLLYDSLYTKILPLSDDIIVYPAHGAGSACGKNMMQETVDSLGNQKRVNYALNQPGKEAFIASVIEGLLPPPAYFGGNVAMNKMGYDSIDNVMERGLSALSATDFEAIAKTSDALVLDTRAPGVFAQGFIPRSINIGLDGDFAPWVGTMIVDVKQPLLLVADPGREQEVITRLSRVGFDQVLGYLDGGFDTWNASGKEIDHVECITANEFAERFCPEESLVFDVRKESEYAAEHVEGAYSRPLAYINDWIQDIPRDRHFYLHCIGGYRSMIASSILLSRGYRNFTDIEGGFASIAQTGVPKTDYVCQSKVSKK”, the “soluble on expression in E. coli” value is on record as “not soluble”.

On to “MSLVTLADANPAQLAPFAGGAFEVAPLDVADEAALTVFLTRQDIVVSACPYFLNKTIARVAVATGTHYFDLTEDVETTAFIKALGETADVALVPQCGLAPGFICILGADMAARFERVKSVKMRVGALPLYPTNALSYNVTWSVDGLINEYCNPCEIVFEGRPTLVPALEGLEHVMIDGVSYEAFNTSGGLGTLTETLDGRVSDLSYKTLRYPGHAEIMKLLLRGLELADDRETLRRILNRAAPFTRKDVVVVFVEGHHHHHH”, for which the “soluble on expression in E. coli” value is on record as “not soluble”.
